No end group written: not given here.
Target: T1, recombinant Clp1 (alone) (S. cerevisiae, UniProt Q08685 1-445)
T1 sequence (looked up): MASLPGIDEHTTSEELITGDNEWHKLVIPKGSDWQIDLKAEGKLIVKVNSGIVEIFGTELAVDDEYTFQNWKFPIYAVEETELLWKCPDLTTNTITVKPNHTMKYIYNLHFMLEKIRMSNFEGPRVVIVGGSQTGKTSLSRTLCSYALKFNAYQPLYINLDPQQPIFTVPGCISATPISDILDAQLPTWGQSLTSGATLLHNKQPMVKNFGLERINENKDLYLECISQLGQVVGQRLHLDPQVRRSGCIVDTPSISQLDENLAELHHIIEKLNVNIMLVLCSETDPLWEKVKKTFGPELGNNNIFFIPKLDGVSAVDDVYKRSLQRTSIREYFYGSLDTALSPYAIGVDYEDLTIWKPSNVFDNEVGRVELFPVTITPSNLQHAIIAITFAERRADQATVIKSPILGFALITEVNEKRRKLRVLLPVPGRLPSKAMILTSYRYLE
Experiment: pull-down

binding result: binds
Binder: TTPISPDEEELGQRTAYHSKRDASTPLRS (peptide, UniProt P08518 915-943, looked up, also: biotin, site not given here) [biotinylated flap loop peptide (Rpb2 amino acids 915–943)]

— PMC4250834 (Cell reports, 2014)
